Data from US20070207967A1, “Peptide Inhibitors of Matrix Metalloproteinase Activity” (CTT CANCER TARGETING TECHNOLOGIES OY, priority 2004, published 2007).

Biological target: β2 integrin on THP-1 cells (human) (UniProt P05107)
Experiment: THP-1 cell binding to immobilized KIM127 (competitor) with C domain 50 µg/ml

Chain of β2 integrin on THP-1 cells (human) (P05107 23-769): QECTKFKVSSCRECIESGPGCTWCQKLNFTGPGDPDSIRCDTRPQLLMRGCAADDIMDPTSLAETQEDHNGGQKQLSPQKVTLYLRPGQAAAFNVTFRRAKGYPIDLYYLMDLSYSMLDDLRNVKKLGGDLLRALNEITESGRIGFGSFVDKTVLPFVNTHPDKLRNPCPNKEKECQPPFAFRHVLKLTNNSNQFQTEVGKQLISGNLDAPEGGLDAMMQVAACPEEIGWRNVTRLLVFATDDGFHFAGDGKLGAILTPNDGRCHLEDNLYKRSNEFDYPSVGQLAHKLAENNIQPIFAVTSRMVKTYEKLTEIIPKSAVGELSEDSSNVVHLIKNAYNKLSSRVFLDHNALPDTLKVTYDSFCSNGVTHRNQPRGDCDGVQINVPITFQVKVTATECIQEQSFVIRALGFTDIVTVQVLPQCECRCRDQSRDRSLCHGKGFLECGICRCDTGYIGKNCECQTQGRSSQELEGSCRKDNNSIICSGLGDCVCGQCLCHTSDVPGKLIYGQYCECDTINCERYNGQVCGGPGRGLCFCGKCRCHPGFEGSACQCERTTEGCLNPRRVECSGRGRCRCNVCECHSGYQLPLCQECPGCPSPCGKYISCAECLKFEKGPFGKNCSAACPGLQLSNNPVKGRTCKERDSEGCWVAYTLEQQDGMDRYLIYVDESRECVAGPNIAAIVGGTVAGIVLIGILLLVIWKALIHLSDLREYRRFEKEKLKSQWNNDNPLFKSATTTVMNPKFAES

## recombinant MMP-9 C-terminal hemopexin-like domain (Asp494-Asp688) (from UniProt P14780 513-707)
  % inhibition of THP-1 cell binding to KIM127: 40%
